Data as given in patent publication US11541125B2, “Noncrushable pill formulations” (THE REGENTS OF THE UNIVERSITY OF CALIFORNIA, priority 2016, dated 2023).
Like-named read-outs stand apart in the source and are kept apart here. Square brackets hold non-standard residues; d marks the D form. Side chains are listed from the residue outwards. Peptide text beside a SMILES is read from it. * marks the point of attachment. ξ: configuration not given here. X2 = CN(CCN*)C(=S)Oc1ccc2c3c1O[C@H]1C(=O)CC[C@@]4(O)[C@@H](C2)N(CC2CC2)CC[C@]314; X1 = CN(CCN*)C(=O)Oc1ccc2c3c1OC1C(=O)CCC4(O)C(C2)N(CC2CC2)CCC314; X4 = CN(CCN*)C(=O)Oc1ccc([N+](=O)[O-])cc1; Trt = c1ccc(C(c2ccccc2)(c2ccccc2)*)cc1; ξF = NC(Cc1ccccc1)C(=O)O; Boc = CC(C)(C)OC(=O)*; ξK = NCCCCC(N)C(=O)O; ξC = NC(CS)C(=O)O; ξA = CC(N)C(=O)O

Key:
[1] = test system: trypsin and/or chymotrypsin; assay: pNA release assay (absorbance at 405 nm); type: biochemical; conditions: 2 mM, incubated with trypsin and/or chymotrypsin, 90 minutes, 37° C.
Description: A stock solution of the CAAK(F)-diamino-pNA was prepared in dimethyl sulfoxide (DMSO) to produce a 16.0 mg/mL solution. A 7.5 mg/mL stock solution of the trypsin was prepared in 50 mM NH4HCO3 buffer (pH=8.05). A 7.5 mg/mL stock solution of chymotrypsin was prepared in 50 mM NH4HCO3 buffer (pH=8.05).
A 96 well plate was used for monitoring the solutions at 405 nm using a plate reader. 20 μL of the peptide was combined with 62.0/66.6 μL of no enzyme, trypsin only, chymotrypsin only, or with both enzymes respectively. All solutions were diluted to a total volume of 200 μL using 50 mM NH4HCO3 (pH=8.05). Blanks were prepared by combining the enzymes with DMSO/buffer and their absorbances were subtracted from the cleavage conditions. Additionally, the residual signal from the peptide in the presence of no enzymes was also used as a blank and subtracted out from enzymatic conditions.

[2] = Description: In order to determine the stability of the enzymatically cleavable covalent linkage between the dual-enzyme responsive peptide and Naltrexone, the drug conjugates (below) were synthesized and subjected to a range of different pH buffers that were chosen to emulate the pH range of typical household chemicals (pH 2-10).
The stabilities of these linkages were assessed by HPLC by monitoring the relative amount of Naltrexone versus the intact peptide-Naltrexone conjugate.

[3] = conjugate sample, no pH buffer named

SMILES: CC(=O)NC(CS)C(=O)NC(C)C(=O)NC(C)C(=O)NC(CCCCNC(=O)C(N)Cc1ccccc1)C(=O)NCCN(C)C(=O)Oc1ccc([N+](=O)[O-])cc1 (centres unmarked) [CAAK(F)-diamino-pNA] (Ac-CAAK(Phe)-X4; configuration not given here)
- theoretical pNA released [1]: 55%

SMILES: CC(=O)NC(CSC(c1ccccc1)(c1ccccc1)c1ccccc1)C(=O)NC(C)C(=O)NC(C)C(=O)NC(CCCCNC(=O)C(Cc1ccccc1)NC(=O)OC(C)(C)C)C(=O)NCCN(C)C(=O)Oc1ccc2c3c1OC1C(=O)CCC4(O)C(C2)N(CC2CC2)CCC314 (centres unmarked) [NPC] (Ac-C(Trt)AAK([Phe-Boc])-X1; configuration not given here)
- stability over the entire pH range ([2]; HPLC, pH buffers): very good stability
- Percent Degradation, t = 0.5 hr [2, 3]: 0%
- Percent Degradation, t = 24 hr [2, 3]: 0%
- Percent Degradation, t = 0.5 hr ([2]; in pH 2): 6.00%
- Percent Degradation, t = 0.5 hr ([2]; in pH 4): 3.50%
- Percent Degradation, t = 0.5 hr ([2]; in pH 7): 1.50%

SMILES: CC(=O)NC(CS)C(=O)NC(C)C(=O)NC(C)C(=O)NC(CCCCNC(=O)C(N)Cc1ccccc1)C(=O)NCCN(C)C(=S)Oc1ccc2c3c1O[C@H]1C(=O)CC[C@@]4(O)[C@@H](C2)N(CC2CC2)CC[C@]314 (some centres unmarked) [NPT] (Ac-[ξC][ξA][ξA][ξK](ξF)-X2)
- stability of the linkage relative to the other linkers ([2]; HPLC, Naltrexone versus intact conjugate, pH buffers): more stable than the carbamate linker
- Percent Degradation, t = 0.5 hr [2, 3]: 0.51%
- Percent Degradation, t = 24 hr [2, 3]: 2.90%
- Percent Degradation, t = 24 hr ([2]; in pH 2): 4.10%
